According to patent US20100041596A1:

Assays:
[1] = target: p6055-211 (Homo sapiens (Human)) (UniProt P19438); experiment: cell staining, normalized to HA staining, p60ΔCD set at 1
[2] = target: p60ΔCD-HA (Homo sapiens (Human)) (UniProt P19438); experiment: as above
[3] = target: p60ΔCD-HA DT49/50AA (Homo sapiens (Human)) (UniProt P19438); experiment: as above
[4] = target: p60ΔCD-HA E57A (Homo sapiens (Human)) (UniProt P19438); experiment: as above
[5] = target: p60ΔCD-HA K19E (Homo sapiens (Human)) (UniProt P19438); experiment: as above
[6] = target: p60ΔCD-HA K32A (Homo sapiens (Human)) (UniProt P19438); experiment: as above
[7] = target: p60ΔCD-HA KY19/20AA (Homo sapiens (Human)) (UniProt P19438); experiment: as above
[8] = target: p60ΔCD-HA L112E (Homo sapiens (Human)) (UniProt P19438); experiment: as above
[9] = target: p60ΔCD-HA N66F (Homo sapiens (Human)) (UniProt P19438); experiment: as above
[10] = target: p60ΔCD-HA Q24A (Homo sapiens (Human)) (UniProt P19438); experiment: as above
[11] = target: p60ΔCD-HA R77A (Homo sapiens (Human)) (UniProt P19438); experiment: as above
[12] = target: p60ΔCD-HA T61A (Homo sapiens (Human)) (UniProt P19438); experiment: as above
[13] = target: p60ΔCD-HA W108T (Homo sapiens (Human)) (UniProt P19438); experiment: as above
[14] = target: p6055-211 (Homo sapiens (Human)) (UniProt P19438); experiment: cell staining, % positive cells / % HA positive cells, p60ΔCD set at 1
[15] = target: p60ΔCD-HA (Homo sapiens (Human)) (UniProt P19438); experiment: as above
[16] = target: p60ΔCD-HA DT49/50AA (Homo sapiens (Human)) (UniProt P19438); experiment: as above
[17] = target: p60ΔCD-HA E57A (Homo sapiens (Human)) (UniProt P19438); experiment: as above
[18] = target: p60ΔCD-HA K19E (Homo sapiens (Human)) (UniProt P19438); experiment: as above
[19] = target: p60ΔCD-HA K32A (Homo sapiens (Human)) (UniProt P19438); experiment: as above
[20] = target: p60ΔCD-HA KY19/20AA (Homo sapiens (Human)) (UniProt P19438); experiment: as above
[21] = target: p60ΔCD-HA L112E (Homo sapiens (Human)) (UniProt P19438); experiment: as above
[22] = target: p60ΔCD-HA N66F (Homo sapiens (Human)) (UniProt P19438); experiment: as above
[23] = target: p60ΔCD-HA Q24A (Homo sapiens (Human)) (UniProt P19438); experiment: as above
[24] = target: p60ΔCD-HA R77A (Homo sapiens (Human)) (UniProt P19438); experiment: as above
[25] = target: p60ΔCD-HA T61A (Homo sapiens (Human)) (UniProt P19438); experiment: as above
[26] = target: p60ΔCD-HA W108T (Homo sapiens (Human)) (UniProt P19438); experiment: as above

Substance: p60-specific monoclonal antibody clone 4.12 (Zymed)
- clone 4.12 staining normalized against HA staining (relative to p60ΔCD) [1]: 0.02
- clone 4.12 staining normalized against HA staining (relative to p60ΔCD) [2]: 1
- clone 4.12 staining normalized against HA staining (relative to p60ΔCD) [3]: 0.96
- clone 4.12 staining normalized against HA staining (relative to p60ΔCD) [4]: 0.04
- clone 4.12 staining normalized against HA staining (relative to p60ΔCD) [5]: 1.07
- clone 4.12 staining normalized against HA staining (relative to p60ΔCD) [6]: 0.01
- clone 4.12 staining normalized against HA staining (relative to p60ΔCD) [7]: 0.14
- clone 4.12 staining normalized against HA staining (relative to p60ΔCD) [8]: 1.27
- clone 4.12 staining normalized against HA staining (relative to p60ΔCD) [9]: 0.04
- clone 4.12 staining normalized against HA staining (relative to p60ΔCD) [10]: 0.97
- clone 4.12 staining normalized against HA staining (relative to p60ΔCD) [11]: 0.99
- clone 4.12 staining normalized against HA staining (relative to p60ΔCD) [12]: 1.28
- clone 4.12 staining normalized against HA staining (relative to p60ΔCD) [13]: 1.11

Substance: p60-specific monoclonal antibody clone MAB225 (R&D Systems)
- MAB225 staining normalized against HA staining (relative to p60ΔCD) [14]: 0.87
- MAB225 staining normalized against HA staining (relative to p60ΔCD) [15]: 1
- MAB225 staining normalized against HA staining (relative to p60ΔCD) [16]: 1.16
- MAB225 staining normalized against HA staining (relative to p60ΔCD) [17]: 1.68
- MAB225 staining normalized against HA staining (relative to p60ΔCD) [18]: 1.05
- MAB225 staining normalized against HA staining (relative to p60ΔCD) [19]: 0.36
- MAB225 staining normalized against HA staining (relative to p60ΔCD) [20]: 0.59
- MAB225 staining normalized against HA staining (relative to p60ΔCD) [21]: 1.31
- MAB225 staining normalized against HA staining (relative to p60ΔCD) [22]: 0.67
- MAB225 staining normalized against HA staining (relative to p60ΔCD) [23]: 1.06
- MAB225 staining normalized against HA staining (relative to p60ΔCD) [24]: 1.06
- MAB225 staining normalized against HA staining (relative to p60ΔCD) [25]: 1.42
- MAB225 staining normalized against HA staining (relative to p60ΔCD) [26]: 1.32
